In PMC5374059 (Journal of molecular biology, 2016):
Ends that are not written are not given here. Me3 = trimethyl-lysine; Me2 = dimethyl

Key:
[1] = target: Set3 PHD finger (wild type, as used in fluorescence and NMR titrations) (yeast) (UniProt P36124); experiment: NMR titration
[2] = target: Set3 PHD finger (wild type, as used in fluorescence and NMR titrations) (yeast) (UniProt P36124); experiment: other fluorescence titration
[3] = target: T131M mutant of Set3 PHD (yeast) (UniProt P36124); experiment: other fluorescence titration
[4] = target: T1, Set3 PHD finger (aa 116-184), crystallised (yeast, UniProt P36124 116-184); experiment: crystal structure
T1 sequence (looked up): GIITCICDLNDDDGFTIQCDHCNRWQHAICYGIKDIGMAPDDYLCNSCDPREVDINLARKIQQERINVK

M132T mutant of MLL5 PHD = target: T2, M132T mutant of MLL5 PHD (human, UniProt Q8IZD2 117-181, M132T); experiment: NMR titration
T2 sequence (looked up): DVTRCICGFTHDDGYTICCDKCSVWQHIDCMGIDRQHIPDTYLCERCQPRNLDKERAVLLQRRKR

Q: “histone H3K4me1 peptide (residues 1-12 of histone H3) (from UniProt P61830 2-13)” was tested. Which Kd [1] did it give?
A: 790 µM

Q: For “histone H3K4me0 peptide (unmodified, residues 1-12 of histone H3) (from UniProt P61830 2-13)”, which Kd [1] is on record?
A: 1400 µM

Q: Which results are given for “histone H3K4me2 peptide (residues 1-12 of histone H3) (from UniProt P61830 2-13)”?
A: Kd [2]: 30 µM; Kd [3]: 8 µM

Q: Which results are given for “histone H3K4me3 peptide (residues 1-12 of histone H3) (from UniProt P61830 2-13)”?
A: Kd [2]: 20 µM; Kd [3]: 2.5 µM

Q: Does ARTK(Me2)QTARKSTG (peptide, UniProt P61830 2-13, looked up) [histone H3K4me2 peptide (residues 1-12 of histone H3)] bind [4]?
A: binds

Q: What does the source list for ARTK(Me3)QTARKSTG (peptide, UniProt P61830 2-13, looked up) [histone H3K4me3 peptide (residues 1-12 of histone H3)]?
A: fold selectivity for H3K4me3 over H3K4me2 (M132T mutant of MLL5 PHD): 1.5 fold; binding result [4]: binds
